Assay results as given in PMC10397247.
Like-named read-outs stand apart in the source and are kept apart here.

T1: 4H370-bH
T1 chain: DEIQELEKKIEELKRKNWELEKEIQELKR

T2: 4H797-bH
T2 chain: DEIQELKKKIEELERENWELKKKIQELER

T3: 4H687-bH
T3 chain: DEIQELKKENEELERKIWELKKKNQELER

T4: 4H953-bH
T4 chain: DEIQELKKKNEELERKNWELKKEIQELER

T5: 4H687-bA
T5 chain: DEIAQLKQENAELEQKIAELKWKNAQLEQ

T6: 4H883-bH
T6 chain: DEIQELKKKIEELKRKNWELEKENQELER

T7: 4H4001-bH
T7 chain: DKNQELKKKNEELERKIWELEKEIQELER

T8: 4H568-bH
T8 chain: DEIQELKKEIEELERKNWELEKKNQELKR

T9: 4H3782-bH
T9 chain: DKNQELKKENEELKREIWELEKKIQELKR

T10: 4H607-bH
T10 chain: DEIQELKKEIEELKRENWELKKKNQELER

T11: 4H3843-bH
T11 chain: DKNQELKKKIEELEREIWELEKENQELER

T12: 4H967-bH
T12 chain: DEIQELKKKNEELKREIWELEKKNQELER

T13: 4H918-bH
T13 chain: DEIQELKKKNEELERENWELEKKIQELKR

T14: 4H462-bH
T14 chain: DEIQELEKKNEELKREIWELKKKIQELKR

T15: 4H72-bH
T15 chain: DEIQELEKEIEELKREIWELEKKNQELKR

T16: P10-AA
T16 chain: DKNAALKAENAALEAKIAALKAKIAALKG

T17: P12-AA
T17 chain: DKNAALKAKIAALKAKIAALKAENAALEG

T18: zCON9_B
T18 chain: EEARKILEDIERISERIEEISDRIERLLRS

T19: P2-AA
T19 chain: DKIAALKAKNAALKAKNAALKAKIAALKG

T20: P9-AA
T20 chain: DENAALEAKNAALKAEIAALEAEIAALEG

T21: zCON9_D
T21 chain: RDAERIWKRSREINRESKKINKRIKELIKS

T22: P8-AA
T22 chain: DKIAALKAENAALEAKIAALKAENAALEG

T23: P7-AA
T23 chain: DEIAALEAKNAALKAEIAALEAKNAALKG

T24: zCON9_A
T24 chain: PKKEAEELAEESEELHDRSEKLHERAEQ

T25: P3-AA
T25 chain: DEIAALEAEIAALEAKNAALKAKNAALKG

T26: P11-AA
T26 chain: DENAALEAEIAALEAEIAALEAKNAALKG

T27: P4-AA
T27 chain: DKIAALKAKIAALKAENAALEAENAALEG


How the values were obtained:
4H370-bH = biological target: T1, 4H370-bH; assay: two-hybrid library CCNG1;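 further: natural log of median RNA to DNA barcode read ratio; higher means stronger binding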
4H797-bH = biological target: T2, 4H797-bH; assay: two-hybrid library CCNG1;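 further: natural log of median RNA to DNA barcode read ratio; higher means stronger binding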
4H687-bH = biological target: T3, 4H687-bH; assay: two-hybrid library CCNG1;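 further: natural log of median RNA to DNA barcode read ratio; higher means stronger binding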
4H953-bH = biological target: T4, 4H953-bH; assay: two-hybrid library CCNG1;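 further: natural log of median RNA to DNA barcode read ratio; higher means stronger binding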
4H687-bA = biological target: T5, 4H687-bA; assay: two-hybrid library CCNG1
4H883-bH = biological target: T6, 4H883-bH; assay: two-hybrid library CCNG1
4H4001-bH = biological target: T7, 4H4001-bH; assay: two-hybrid library CCNG1
4H568-bH = biological target: T8, 4H568-bH; assay: two-hybrid library CCNG1
4H3782-bH = biological target: T9, 4H3782-bH; assay: two-hybrid library CCNG1
4H607-bH = biological target: T10, 4H607-bH; assay: two-hybrid library CCNG1
4H3843-bH = biological target: T11, 4H3843-bH; assay: two-hybrid library CCNG1
4H967-bH = biological target: T12, 4H967-bH; assay: two-hybrid library CCNG1
4H918-bH = biological target: T13, 4H918-bH; assay: two-hybrid library CCNG1
4H462-bH = biological target: T14, 4H462-bH; assay: two-hybrid library CCNG1
4H72-bH = biological target: T15, 4H72-bH; assay: two-hybrid library CCNG1
P10-AA = biological target: T16, P10-AA; assay: two-hybrid library CCmax
P12-AA = biological target: T17, P12-AA; assay: two-hybrid library CCmax
zCON9_B = biological target: T18, zCON9_B; assay: two-hybrid library CCmax
P2-AA = biological target: T19, P2-AA; assay: two-hybrid library CCmax; conditions: mean of both orientations
P9-AA = biological target: T20, P9-AA; assay: two-hybrid library CCmax
zCON9_D = biological target: T21, zCON9_D; assay: two-hybrid library CCmax
P8-AA = biological target: T22, P8-AA; assay: two-hybrid library CCmax; conditions: mean of both orientations
P7-AA = biological target: T23, P7-AA; assay: two-hybrid library CCmax
zCON9_A = biological target: T24, zCON9_A; assay: two-hybrid library CCmax
P3-AA = biological target: T25, P3-AA; assay: two-hybrid library CCmax; conditions: mean of both orientations
P11-AA = biological target: T26, P11-AA; assay: two-hybrid library CCmax; conditions: mean of both orientations
P4-AA = biological target: T27, P4-AA; assay: two-hybrid library CCmax

Row | interaction score (zCON9_B; mean of both orientations) | interaction score (P2-AA) | interaction score (P9-AA; mean of both orientations) | interaction score (zCON9_D) | interaction score (P8-AA) | interaction score (P7-AA; mean of both orientations) | interaction score (P3-AA) | interaction score (P4-AA; mean of both orientations) | interaction score (zCON9_D; mean of both orientations) | interaction score (zCON9_A) | Binder | other results
1 | – | – | – | – | – | – | – | – | – | – | DEIQELEKKIEELKRKNWELEKEIQELKR [4H370-bH] | interaction score (4H370-bH): 0.649; interaction score (4H797-bH): 0.396; interaction score (4H687-bH): -1.39; interaction score (4H953-bH): 0.739; interaction score (4H687-bA): 0.534; interaction score (4H883-bH): -0.56; interaction score (4H4001-bH): 0.0634; interaction score (4H568-bH): 0.618; interaction score (4H3782-bH): 0.858; interaction score (4H607-bH): -0.999; interaction score (4H3843-bH): 0.946; interaction score (4H967-bH): 0.239; interaction score (4H918-bH): -0.0355; interaction score (4H462-bH): 0.842; interaction score (4H72-bH): -0.56
2 | -0.0248 | -1.38 | 2.32 | -1.97 | -1.28 | -0.0691 | -0.118 | -1.35 | – | – | DKNAALKAENAALEAKIAALKAKIAALKG [P10-AA] | interaction score (P10-AA): -0.869; interaction score (P12-AA; mean of both orientations): -1.23; interaction score (zCON9_A; mean of both orientations): -1.58; interaction score (P11-AA): 1.43
3 | -1.1 | – | -1.18 | – | -1.82 | -1.41 | – | – | -3.43 | -1.68 | DKIAALKAKIAALKAENAALEAENAALEG [P4-AA] | interaction score (P4-AA): -2.32
4 | – | – | – | – | – | – | – | – | -1.94 | -1.13 | DENAALEAKNAALKAEIAALEAEIAALEG [P9-AA] | interaction score (zCON9_B): -1.59; interaction score (P9-AA): -1.97
5 | 0.333 | -1.74 | 0.219 | – | -1.95 | -1.45 | 1.42 | -1.68 | -2.06 | -1.73 | DKNAALKAKIAALKAKIAALKAENAALEG [P12-AA] | interaction score (P12-AA): -1.64
6 | -1.46 | – | -1.14 | -1.95 | 1.87 | – | – | – | – | -1.78 | DEIAALEAKNAALKAEIAALEAKNAALKG [P7-AA] | interaction score (P7-AA): -1.79
